Experimental data as given in patent US8153424B2, “Method of in vitro differentiation of neural stem cells, motor neurons and dopamine neurons from primate embryonic stem cells” (Wisconsin Alumni Research Foundation, priority 2001, dated 2012).

Test system: hESC-derived neuroectodermal cells
Test: Midbrain regionalization and DA neuron differentiation, immunocytochemistry and cell counting
Format: cell-based, human
Settings: FGF8 100 ng/ml applied at day nine for six days, expanded in FGF8 four days, then SHH six days
Experimental: Differentiation and enrichment of neuroectodermal cells. hESC colonies were detached from MEF layer by the treatment of the culture with 0.2 mg/ml of dispase (Roche Diagnostics) and grown as floating cell aggregates (embryoid body) for four days with a daily change of ESC medium. They were then grown in an adherent substrate in a neural medium consisting of DMEM/F12 (2:1), supplemented with N2 (Gibco), 0.1 mM non-essential amino acids, 2 μg/ml heparin with a medium change every other day. The ESC aggregates attached and formed individual colonies at around day six. […] The neural rosettes were isolated through differential enzymatic response (Zhang et al., supra, 2001). Growth factors were added during the course of differentiation to influence regionalization (see results).
DA neuron differentiation. The enriched neuroectodermal cells were dissociated by 0.025% trypsin and 0.27 mM EDTA in PBS at 37° C. for 10-15 minutes and plated onto 12-mm coverslips (pre-coated with 100 μg/ml polyornithine and 10 μg/ml laminin) at a density of 40,000-50,000 cells/coverslip. […]
Immunocytochemistry and cell quantification. […] Staining was visualized with a Nikon fluorescence microscope. […] The cells in ten visual fields were randomly selected and counted from each coverslip.

B1: FGF8: fibroblast growth factor 8 (protein, UniProt P55075 23-233, looked up)
Fibroblast growth factor 8: QEGPGRGPALGRELASLFRAGREPQGVSQQHVREQSLVTDQLSRRLIRTYQLYSRTSGKHVQVLANKRINAMAEDGDPFAKLIVETDTFGSRVRVRGAETGLYICMNKKGKLIAKSNGKGKDCVFTEIVLENNYTALQNAKYEGWYMAFTRKGRPRKGSKTRQHQREVHFMKRLPRGHHTTEQSLRFEFLNYPPFTRSLRGSQRTWAPEPR
For B1, the “En-1 expression in nestin-expressing neuroectodermal cells” value was “En-1 expression was observed”.
